Each block holds one compound with its values, some of them ahead of it.
Columns and labels:
[1] = biological target: DgcR wild type, BeF3- modified (pseudo-phosphorylated, activated) (Leptospira biflexa); experiment: SEC-MALS; in-line multi-angle light scattering and refractive index; 100 µL loaded at 0.5 to 10 mg/mL with various ligands; 20 mM Tris pH 8.0, 500 mM NaCl (or 20 mM NaCl), 5 mM MgCl2, 1 mM DTT; substrate analogue, product or lower salt did not change the quaternary state
[2] = biological target: T1, DgcR (Leptospira biflexa, UniProt B0SUI1); experiment: crystal structure at […] Å (DgcR_inh); product-inhibition Ki from progress curves (oIEC), about […] for BeF3-activated and about […] for native enzyme; format: biochemical
T1 construct: gene LEPBI_p0053; full-length (298 residues), dimer
T1 sequence (B0SUI1 1-298): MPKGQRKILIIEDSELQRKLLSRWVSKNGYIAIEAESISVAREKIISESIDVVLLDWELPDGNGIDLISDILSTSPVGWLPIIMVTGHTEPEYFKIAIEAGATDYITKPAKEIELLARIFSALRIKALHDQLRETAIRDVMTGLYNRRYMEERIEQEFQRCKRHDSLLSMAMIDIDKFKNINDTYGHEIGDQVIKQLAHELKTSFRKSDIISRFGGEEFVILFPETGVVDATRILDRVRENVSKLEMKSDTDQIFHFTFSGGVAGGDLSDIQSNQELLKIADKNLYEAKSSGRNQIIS

[3] = biological target: DgcR (LEPBI_RS18680, diguanylate cyclase controlled by Rec) from Leptospira biflexa, wild type, native (Leptospira biflexa); experiment: SEC-MALS; in-line multi-angle light scattering and refractive index; 100 µL loaded at 0.5 to 10 mg/mL with various ligands; 20 mM Tris pH 8.0, 500 mM NaCl (or 20 mM NaCl), 5 mM MgCl2, 1 mM DTT; substrate analogue, product or lower salt did not change the quaternary state

- stoichiometry N [1]: 2
Compound: DgcR wild type, BeF3- modified (pseudo-phosphorylated, activated) (enzyme)

- Ki [2]: ~150 nM
Compound: Nc1nc2c(ncn2[C@@H]2O[C@@H]3CO[P@](=O)(O)O[C@H]4[C@@H](O)[C@H](n5cnc6c(=O)[nH]c(N)nc65)O[C@@H]4CO[P@](=O)(O)O[C@H]3[C@H]2O)c(=O)[nH]1 [c-di-GMP]

- stoichiometry N [3]: 2
Compound: DgcR (LEPBI_RS18680, diguanylate cyclase controlled by Rec) from Leptospira biflexa, wild type, native (enzyme)

Source: PMC8041772, “Activation mechanism of a small prototypic Rec-GGDEF diguanylate cyclase” (Nature Communications, 2021)
